Biological target: T1, His-MBP-PABPN1 WT (human, UniProt Q86U42 1-306)
T1 sequence: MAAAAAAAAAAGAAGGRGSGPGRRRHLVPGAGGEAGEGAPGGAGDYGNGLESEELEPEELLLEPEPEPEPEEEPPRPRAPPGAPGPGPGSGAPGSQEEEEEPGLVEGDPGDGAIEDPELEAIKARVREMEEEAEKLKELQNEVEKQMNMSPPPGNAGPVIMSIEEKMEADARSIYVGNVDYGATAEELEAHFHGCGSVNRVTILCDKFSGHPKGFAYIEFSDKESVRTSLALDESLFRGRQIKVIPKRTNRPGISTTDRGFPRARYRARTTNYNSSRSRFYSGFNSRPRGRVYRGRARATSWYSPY
Experiment: filter binding; 50 mM Tris-HCl pH 8.0, 100 mM KCl, 5 mM MgCl2, 2 mM EDTA, 10% glycerol, 0.2 mg/ml BSA, 0.01% NP-40, 0.5 mM DTT, 2 U/ul RNase OUT; 500 pM RNA, protein 62.5 nM-4
Conditions: protein: recombinant; tags: N-terminal His-MBP (uncleaved); label: 5'-32P; single strand

## AAAAAAAAAAAAAAAAAAAAAAAAAAAAAA (ssRNA) [poly(A)30]
  binding result: binds

Reference: paper PMC11381358, “Phosphorylation of the nuclear poly(A) binding protein (PABPN1) during mitosis protects mRNA from hyperadenylation and maintains transcriptome dynamics”
